Data on one molecule can be found in patent US20150297694A1, “CANCER DIAGNOSTIC AND THERAPEUTIC METHOD TARGETING MOLECULES EXPRESSED IN CANCER STEM CELLS” (NIIGATA UNIVERSITY, priority 2012, published 2015).

Assay [1] deals with CD62Llow CD4-positive or CD8-positive T cells. As to the kind of experiment: Cytokine ELISA (IFN-γ, IL-17) of CD62Llow lymph node T cells stimulated with antigen-loaded dendritic cells. In kind it is cell-based, mice. An excerpt: T cells were stimulated with immobilized anti-CD3 monoclonal antibodies or antigen-pulsed BM-DCs in CM. Supernatants were harvested and assayed for IFN-γ, IL-4, and IL-17 content by a quantitative “sandwich” enzyme immunoassay using a murine IFN-γ, IL-4, and IL-17 ELISA kit (Genzyme), according to the manufacturer's protocol.
The inventors investigated whether T cells primed with synthesized DDX3X antigen could recognize CD133-positive melanoma cells.
The CD62L^low CD4-positive or CD8-positive T cells (1×10^5 cells) isolated from the lymph nodes were stimulated with 1×10^4 dendritic cells in 200 μl of complete medium (CM) for 48 hours in a 96-well plate. The dendritic cells used for stimulation were stimulated overnight with the same number of irradiated CD133-positive tumor cells or CD133-negative tumor cells (5,000 cGy), or synthesized DDX3X (5 μg/ml). The dendritic cells were purified with CD11c microbeads prior to co-culture.
Background: In an ELISA, binding on a coated surface is turned into a signal by an enzyme label.

Assay [2] concerns CD3-positive T cells from peripheral blood. As to the kind of experiment: Detection of DDX3X-responding IFN-γ-producing T cells in peripheral blood (co-culture with DDX3X-pulsed dendritic cells, ELISA). It is filed as cell-based, human. Further details: key to DDX3X-specific T cell: “Yes” means detection of DDX3X-specific T cells in blood; “No” means no detection of DDX3X-specific T cells in blood. Particulars: for DDX3X-specific T cell: DC pulsed with DDX3X 3.3 μg/ml, co-culture 24 hours, IFN-γ. How it is done: Peripheral blood (15 ml) was collected after informed consent. A mononulclear cell fraction was collected by density-gradient centrifugation using Lymphoprep(trade name) (Cosmo Bio), and CD14^+ cells were isolated with CD14 microbeads and autoMACS. The CD14^+ cells were cultured with rhGM-CSF (1 ng/ml, a gift from Kirin) and rhIL-4 (10 ng/ml, R&D systems), and differentiated into dendritic cells by day 5. The dendritic cells were cultured overnight in medium containing synthesized DDX3X protein (3.3 μg/ml) or the same concentration of OVA, and CD11c-positive cells purified with CD11c microbeads and autoMACS were used as antigen-presenting cells. In order to remove naive T cells and regulatory T cells from the CD14 fraction cells, CD62L^high cells were removed by using anti-CD62L antibody (1H3)-conjugated Dynabeads. The CD62L^low CD14^− cells were cultured for 48 hours on a BD BioCoat(trade name) T cell activation plate (Becton Dickinson), and cultured for 4 days in medium containing 20 U/ml of rhIL-2 (a gift from Shionogi). FACS confirmed that 95% or more of the cells were CD3-positive T cells, and the CD3-positive T cells were used as responding cells. The responding cells (1×10^5) and antigen-presenting cells (1×10^4) were co-cultured for 24 hours in a 200-μl medium in a round-bottom 96-well plate, and the IFN-γ concentration was measured by ELISA using the supernatant collected after co-culture. Unpulsed dendritic cells, DDX3X-pulsed dendritic cells, and OVA-pulsed dendritic cells were used as the antigen-presenting cells. In Table 3, “Yes” means that IFN-γ production from T cells was confirmed with significant difference only in a co-culture with the DDX3X-pulsed dendritic cells. In the table, “% Treg” and “% Teff” represent the proportions of the regulatory T cells and the effector T cells, respectively, with respect to the total number of CD4^+ T cells as determined by the FACS analysis of the mononulclear cell fraction immediately after isolation from the peripheral blood. CD62L^high CD25^+CD4^+ T cells and CD62L^low CD4^+ T cells were used as regulatory T cells (Treg) and effector T cells (Teff), respectively, in the FACS analysis, as reported in Koyama K, Kagamu H, et al. Reciprocal CD4^+ T-cell balance of effector CD62L^low CD4^+ and CD62L^high CD25^+ CD4^+ regulatory T cells in small cell lung cancer reflects disease stage. Clin Cancer Res. 2008; 14: 6770-9. Detection of DDX3X-responding T cells was not possible in any of the healthy individuals (HV), small cell lung cancer patients with distal metastasis (SCLC-ED), and cured small cell lung cancer patients. However, the experiment found the presence of DDX3X-responding, specific IFN-γ-producing T cells in 5 of 12 small cell lung cancer (SCLC-LD) patients with no distal metastasis.

Setting [3] is: T cells from lymph nodes draining DC pulsed with synthesized DDX3X, stimulated 48 hours with DC loaded with CD133-positive or CD133-negative tumor cells.

B1: DEAD/H (Asp-Glu-Ala-Asp/His) box polypeptide 3, X-linked (protein, listed as Homo sapiens)
chain: MSHVAVENALGLDQQFAGLDLNSSDNQSGGSTASKGRYIPPHLRNREATKGFYDKDSSGWSSSKDKDAYSSFGSRSDSRGKSSFFSDRGSGSRGRFDDRGRSDYDGIGSRGDRSGFGKFERGGNSRWCDKSDEDDWSKPLPPSERLEQELFSGGNTGINFEKYDDIPVEATGNNCPPHIESFSDVEMGEIIMGNIELTRYTRPTPVQKHAIPIIKEKRDLMACAQTGSGKTAAFLLPILSQIYSDGPGEALRAMKENGRYGRRKQYPISLVLAPTRELAVQIYEEARKFSYRSRVRPCVVYGGADIGQQIRDLERGCHLLVATPGRLVDMMERGKIGLDFCKYLVLDEADRMLDMGFEPQIRRIVEQDTMPPKGVRHTMMFSATFPKEIQMLARDFLDEYIFLAVGRVGSTSENITQKVVWVEESDKRSFLLDLLNATGKDSLTLVFVETKKGADSLEDFLYHEGYACTSIHGDRSQRDREEALHQFRSGKSPILVATAVAARGLDISNVKHVINFDLPSDIEEYVHRIGRTGRVGNLGLATSFFNERNINITKDLLDLLVEAKQEVPSWLENMAYEHHYKGSSRGRSKSSRFSGGFGARDYRQSSGASSSSFSSSRASSSRSGGGGHGSSRGFGGGGYGGFYNSDGYGGNYNSQGVDWWGN
Take B1: the “IFN-γ and IL-17 secretion by DDX3X-specific CD4-positive T cells” value in assay [1] (setting [3]) was “secreted IFN-γ and IL-17 in a melanoma CSC-specific manner”. The “response of DDX3X-specific CD8-positive T cells” value in assay [1] (setting [3]) is “responded to both CD133-negative and CD133-positive melanoma cells”. The “cytokine production by melanoma CSC-specific CD4-positive T cells” value in assay [1] (T cells primed with vaccinated CD133-positive melanoma cells, stimulated with DC pulsed with synthesized DDX3X (5 μg/ml)) was “produced cytokines in a DDX3X-specific manner”. Also, the “cytokine production upon DDX3X stimulation compared with stimulation with the melanoma CSC itself” value in assay [1] (melanoma CSC-specific CD4-positive T cells) is “produced even more cytokines”. Also, the “DDX3X-specific T cell” value in assay [2] (Cured SCLC subjects) was “No”; in assay [2] (HV (healthy individuals)), “No”; in assay [2] (SCLC-ED subjects), “No”; in assay [2] (SCLC-LD subjects) it was “Yes and No”. In assay [2] (healthy individuals (HV), SCLC-ED and cured small cell lung cancer patients), the “detection of DDX3X-responding T cells” value is listed as “not possible”. Moreover, the “patients with DDX3X-responding, specific IFN-γ-producing T cells” value in assay [2] (small cell lung cancer (SCLC-LD) patients with no distal metastasis) is listed as 5 of 12.
